Positions count from the first letter of the chain named.
T1: human EphA3 (Homo sapiens, UniProt P29320)
T1 construct: a protein of the extracellular region of each human Eph receptor fused with the SEAP protein and the His tag; made in house; host or cells: Expi293F cells (culture supernatant)
T1 sequence (P29320 21-541 limits assumed): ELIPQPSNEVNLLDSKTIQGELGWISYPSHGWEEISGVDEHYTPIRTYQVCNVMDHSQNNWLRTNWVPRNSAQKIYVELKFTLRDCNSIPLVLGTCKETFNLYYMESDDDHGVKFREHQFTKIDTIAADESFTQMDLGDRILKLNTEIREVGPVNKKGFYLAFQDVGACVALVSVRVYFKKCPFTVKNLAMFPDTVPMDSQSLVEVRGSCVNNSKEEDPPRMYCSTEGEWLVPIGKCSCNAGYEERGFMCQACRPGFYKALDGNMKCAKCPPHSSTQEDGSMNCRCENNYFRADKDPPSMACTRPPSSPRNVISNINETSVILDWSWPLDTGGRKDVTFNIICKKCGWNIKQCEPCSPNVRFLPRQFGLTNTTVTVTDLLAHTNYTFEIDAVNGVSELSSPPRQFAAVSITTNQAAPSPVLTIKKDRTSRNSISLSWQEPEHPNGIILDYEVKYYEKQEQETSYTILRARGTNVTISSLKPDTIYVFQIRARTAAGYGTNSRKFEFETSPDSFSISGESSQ

T2: human EphB4 (Homo sapiens, UniProt P54760)
T2 construct: a protein of the extracellular region of each human Eph receptor fused with the SEAP protein and the His tag; made in house; host or cells: Expi293F cells
T2 sequence (P54760 16-539 limits assumed): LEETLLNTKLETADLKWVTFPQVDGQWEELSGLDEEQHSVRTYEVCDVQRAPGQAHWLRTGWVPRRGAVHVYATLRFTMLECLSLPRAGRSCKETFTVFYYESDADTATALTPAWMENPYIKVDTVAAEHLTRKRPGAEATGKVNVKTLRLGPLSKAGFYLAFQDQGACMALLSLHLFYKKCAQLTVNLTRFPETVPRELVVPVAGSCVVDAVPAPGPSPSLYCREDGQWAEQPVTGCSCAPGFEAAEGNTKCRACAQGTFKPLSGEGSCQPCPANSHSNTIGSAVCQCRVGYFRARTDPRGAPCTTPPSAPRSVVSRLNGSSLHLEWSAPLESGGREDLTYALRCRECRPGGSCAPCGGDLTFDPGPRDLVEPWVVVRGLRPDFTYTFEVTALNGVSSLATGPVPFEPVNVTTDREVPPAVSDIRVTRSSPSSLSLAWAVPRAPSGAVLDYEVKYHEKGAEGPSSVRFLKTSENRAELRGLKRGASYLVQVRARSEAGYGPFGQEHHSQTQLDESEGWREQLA

T3: human EphB2 (Homo sapiens, UniProt P29323)
T3 construct: a protein of the extracellular region of each human Eph receptor fused with the SEAP protein and the His tag; made in house; host or cells: Expi293F cells
T3 sequence (P29323 19-543 limits assumed): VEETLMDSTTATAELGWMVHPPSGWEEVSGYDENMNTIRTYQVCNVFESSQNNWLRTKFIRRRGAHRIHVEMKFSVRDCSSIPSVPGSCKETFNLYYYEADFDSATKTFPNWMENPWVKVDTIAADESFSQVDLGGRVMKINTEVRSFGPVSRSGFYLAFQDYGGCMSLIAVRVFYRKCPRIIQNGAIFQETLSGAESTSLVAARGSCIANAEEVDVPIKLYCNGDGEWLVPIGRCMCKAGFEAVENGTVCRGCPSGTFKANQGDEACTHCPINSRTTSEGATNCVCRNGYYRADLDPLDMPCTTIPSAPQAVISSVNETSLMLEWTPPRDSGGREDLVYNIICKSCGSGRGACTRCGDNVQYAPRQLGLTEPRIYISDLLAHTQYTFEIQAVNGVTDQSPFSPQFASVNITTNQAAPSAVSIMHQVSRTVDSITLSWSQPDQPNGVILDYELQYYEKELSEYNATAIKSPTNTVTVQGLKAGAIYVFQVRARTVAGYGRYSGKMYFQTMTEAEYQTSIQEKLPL

B1: 138 (antibody, V domains shown)
VH: QIQLVQSGSELKKPGASVKVSCKASGYTFTDYSMHWVRQAPGQGLKWMGWINTETGEPTYAQGFTGRFVFSLDTSVSTAYLQISSLKAEDTAVYYCARIPLYYYGSRYWYFDVWGQGTTVTVSS
VL: DIQMTQSPSSLSASVGDRVTITCRASENIYRNLAWYQQKPGKAPKLLVYAATNLADGVPSRFSGSGSGTDYTLTISSLQPEDFATYYCQHFWGTPWTFGQGTKVEIK
modifications: synthetic humanized antibody heavy chain variable region sequence; synthetic humanized antibody light chain variable region sequence
B2: 142 (antibody, V domains shown)
VH: B1 VH with I2V, Q62D, G63D, T65K
VL: B1 VL
modifications: synthetic humanized antibody heavy chain variable region sequence; synthetic humanized antibody light chain variable region sequence
B3: 152 (antibody, V domains shown)
VH: B1 VH with I2V, K46E
VL: B1 VL with V48L, P80S
modifications: synthetic humanized antibody heavy chain variable region sequence; synthetic humanized antibody light chain variable region sequence
B4: 141 (antibody, V domains shown)
VH: B1 VH with I2V, K46E, Q62D, G63D, T65K
VL: B1 VL
modifications: synthetic humanized antibody heavy chain variable region sequence; synthetic humanized antibody light chain variable region sequence
B5: 143 (antibody, V domains shown)
VH: B1 VH with Q62D, G63D, T65K
VL: B1 VL
modifications: synthetic humanized antibody heavy chain variable region sequence; synthetic humanized antibody light chain variable region sequence

Key:
Assay in all cases: Selectivity ELISA of humanized antibodies for human Eph receptor
Type in all cases: binding
Details in all cases: coated protein 1 nM
SEAP-His = SEAP-His (Homo sapiens, UniProt P05187)
Procedure, shortened: (§1)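 Human Eph ECD-SEAP-His fusions, harvested after 5 days of Expi293F expression, are captured on anti-His-coated wells (1 nM final). Bound humanized antibody is detected with HRP anti-IgG and TMB at 450 nm.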

human EphA3 = target: T1, human EphA3
Procedure, shortened: as §1

human EphA2 = target: T4, human EphA2 (Homo sapiens, UniProt P29317)
T4 construct: a protein of the extracellular region of each human Eph receptor fused with the SEAP protein and the His tag; made in house; host or cells: Expi293F cells (culture supernatant)
Procedure, shortened: as §1

human EphB4 = target: T2, human EphB4
Procedure, shortened: as §1

human EphB2 = target: T3, human EphB2
Procedure, shortened: as §1

T4 sequence (P29317 24-537 limits assumed): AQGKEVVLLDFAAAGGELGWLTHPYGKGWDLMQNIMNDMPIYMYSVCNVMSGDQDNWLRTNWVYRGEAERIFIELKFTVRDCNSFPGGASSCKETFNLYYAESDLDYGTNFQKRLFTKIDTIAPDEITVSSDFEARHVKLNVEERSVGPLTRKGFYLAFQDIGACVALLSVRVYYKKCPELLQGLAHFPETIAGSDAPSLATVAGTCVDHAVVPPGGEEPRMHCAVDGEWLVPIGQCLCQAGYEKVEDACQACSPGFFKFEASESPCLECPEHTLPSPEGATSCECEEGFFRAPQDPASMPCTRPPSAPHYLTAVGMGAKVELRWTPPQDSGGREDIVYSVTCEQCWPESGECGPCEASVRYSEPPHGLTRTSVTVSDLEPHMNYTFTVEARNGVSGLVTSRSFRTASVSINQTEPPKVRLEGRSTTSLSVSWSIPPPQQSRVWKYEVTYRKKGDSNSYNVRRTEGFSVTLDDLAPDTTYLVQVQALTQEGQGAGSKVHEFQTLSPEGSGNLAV
Sequence of SEAP-His (P05187 23-511 limits assumed): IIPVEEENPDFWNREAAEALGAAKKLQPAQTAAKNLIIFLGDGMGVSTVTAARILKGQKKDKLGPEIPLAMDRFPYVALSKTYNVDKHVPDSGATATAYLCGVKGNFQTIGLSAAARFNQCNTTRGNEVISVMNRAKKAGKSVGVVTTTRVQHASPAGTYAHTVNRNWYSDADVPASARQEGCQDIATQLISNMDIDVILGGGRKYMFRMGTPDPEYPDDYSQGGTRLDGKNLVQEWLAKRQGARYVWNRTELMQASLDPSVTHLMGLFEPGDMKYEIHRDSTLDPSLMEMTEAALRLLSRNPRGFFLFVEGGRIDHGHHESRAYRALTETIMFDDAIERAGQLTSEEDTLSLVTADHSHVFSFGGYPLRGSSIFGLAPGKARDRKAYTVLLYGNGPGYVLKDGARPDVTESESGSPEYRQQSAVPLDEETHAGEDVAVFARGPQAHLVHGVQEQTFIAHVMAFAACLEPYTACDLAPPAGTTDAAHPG

| SEAP-His: absorbance at 450 nm, percentage with respect to hEphA4-SEAP-His as 100% (SEAP-His) | hEphA3-SEAP-: absorbance at 450 nm, percentage with respect to hEphA4-SEAP-His as 100% (human EphA3) | hEphA2-SEAP-: absorbance at 450 nm, percentage with respect to hEphA4-SEAP-His as 100% (human EphA2) | hEphB4-SEAP-: absorbance at 450 nm, percentage with respect to hEphA4-SEAP-His as 100% (human EphB4) | hEphB2-SEAP-: absorbance at 450 nm, percentage with respect to hEphA4-SEAP-His as 100% (human EphB2) | Molecule |
| --- | --- | --- | --- | --- | --- |
| 5.1% | 4.9% | 5.0% | 5.2% | 5.2% | B1 |
| 5.8% | 5.5% | 5.6% | 5.7% | 5.6% | B2 |
| 5.4% | 5.8% | 5.8% | 5.9% | 5.8% | B3 |
| 5.0% | 5.3% | 5.2% | 5.4% | 5.2% | B4 |
| 6.3% | 5.6% | 5.7% | 5.9% | 5.8% | B5 |

— US10428140B2, “Anti-EphA4 antibody” (EISAI R&D MANAGEMENT CO., LTD., priority 2015, dated 2019)
